This is an account of results in patent US7125658B2, “Small protein that interacts with a ribonucleotide reductase subunit and uses thereof” (The Trustees of Columbia University in the City of New York, priority 1998, dated 2006).

In assay [1] the target is T1, Recombinant yeast Rnr1 protein (large subunit of ribonucleotide reductase) (yeast (Saccharomyces cerevisiae), UniProt P21524 1-888).
T1 sequence (looked up): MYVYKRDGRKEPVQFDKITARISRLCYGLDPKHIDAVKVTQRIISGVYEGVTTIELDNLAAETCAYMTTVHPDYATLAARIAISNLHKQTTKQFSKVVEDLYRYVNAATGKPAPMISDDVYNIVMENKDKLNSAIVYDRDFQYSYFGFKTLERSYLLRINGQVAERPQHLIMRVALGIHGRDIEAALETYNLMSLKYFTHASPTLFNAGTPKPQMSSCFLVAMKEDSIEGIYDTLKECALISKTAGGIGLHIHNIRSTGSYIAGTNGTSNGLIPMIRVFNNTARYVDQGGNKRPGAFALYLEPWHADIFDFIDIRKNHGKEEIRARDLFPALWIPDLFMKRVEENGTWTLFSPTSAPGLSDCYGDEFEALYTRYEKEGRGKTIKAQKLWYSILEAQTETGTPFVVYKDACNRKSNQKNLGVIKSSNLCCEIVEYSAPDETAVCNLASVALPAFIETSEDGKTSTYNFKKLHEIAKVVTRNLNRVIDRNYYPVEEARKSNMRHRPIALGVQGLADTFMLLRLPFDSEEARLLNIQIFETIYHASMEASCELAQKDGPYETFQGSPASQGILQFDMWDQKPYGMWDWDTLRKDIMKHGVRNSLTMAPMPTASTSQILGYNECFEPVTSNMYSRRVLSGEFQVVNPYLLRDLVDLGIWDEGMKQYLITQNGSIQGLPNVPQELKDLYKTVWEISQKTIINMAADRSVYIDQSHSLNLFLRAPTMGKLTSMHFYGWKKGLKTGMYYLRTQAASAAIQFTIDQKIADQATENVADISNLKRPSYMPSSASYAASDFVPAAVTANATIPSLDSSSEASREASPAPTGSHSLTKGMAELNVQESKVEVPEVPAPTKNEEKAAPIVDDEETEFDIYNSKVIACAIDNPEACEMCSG
Briefly: cell-based or functional assay.

The target of assay [2] is T2, Recombinant mouse ribonucleotide reductase R1 protein (mouse, UniProt P07742 1-792).
T2 construct: also called mouse R1 protein
T2 sequence (looked up): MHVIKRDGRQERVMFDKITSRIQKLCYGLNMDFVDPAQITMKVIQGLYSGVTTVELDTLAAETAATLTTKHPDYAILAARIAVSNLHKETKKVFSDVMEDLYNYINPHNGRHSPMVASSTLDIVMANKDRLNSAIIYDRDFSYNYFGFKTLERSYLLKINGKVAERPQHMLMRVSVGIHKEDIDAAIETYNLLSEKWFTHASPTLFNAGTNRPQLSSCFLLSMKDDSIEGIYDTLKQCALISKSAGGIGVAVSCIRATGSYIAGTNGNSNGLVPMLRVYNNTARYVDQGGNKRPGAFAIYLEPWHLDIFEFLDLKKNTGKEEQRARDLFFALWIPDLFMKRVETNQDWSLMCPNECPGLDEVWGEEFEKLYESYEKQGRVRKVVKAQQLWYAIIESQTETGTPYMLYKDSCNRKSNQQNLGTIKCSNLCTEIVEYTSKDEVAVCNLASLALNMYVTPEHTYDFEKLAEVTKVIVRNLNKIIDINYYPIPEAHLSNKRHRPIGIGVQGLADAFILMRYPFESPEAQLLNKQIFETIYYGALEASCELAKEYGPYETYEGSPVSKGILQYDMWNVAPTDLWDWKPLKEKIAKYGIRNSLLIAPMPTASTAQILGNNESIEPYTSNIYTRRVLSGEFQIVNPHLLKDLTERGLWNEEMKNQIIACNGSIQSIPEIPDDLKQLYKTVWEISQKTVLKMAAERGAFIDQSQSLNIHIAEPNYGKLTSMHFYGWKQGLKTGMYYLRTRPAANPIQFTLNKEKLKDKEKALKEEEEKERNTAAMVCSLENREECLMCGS
Briefly: BIAcore biosensor, mouse R1 protein alone at 0.1 mg/ml over immobilized Sml1p, prolonged injection, bulk effect not subtracted.

Assay [3] deals with T1, Recombinant yeast Rnr1 protein (large …). The assay can be described thus: BIAcore SPR, Sml1p immobilized, Rnr1p injected (0.1-2.5 µM); equilibrium response fitted to one site binding model; equilibrium response fit (GraphPad Prism), directly determined. As for the experimental part:
In this figure, the bulk effect response of around 60 RU has been subtracted.
BIAcore biosensor analysis. The interaction between Sml1p and either yeast Rnr1p or mouse R1 protein was studied by biosensor analysis using the BIAcore method (Biacore AB). The Sml1 protein was prepared in 10 mM sodium acetate, pH 5.2, at a concentration of 0.44 mg/ml; it was then immobilized on the dextran layer of the sensor chip as described previously for the mouse R2 protein (17). The ligand proteins were equilibrated with running buffer (10 mM Hepes-KOH, pH 7.4, 200 mM potassium acetate, 1 mM EDTA, 5 mM magnesium acetate and 0.05% Surfactant P20 (BIAcore). The interactions were studied at a constant temperature of 22° C. and a constant flow of 5 μl/min. Kinetics for the interaction of Sml1p with yeast Rnr1p was determined by allowing the immobilized Sml1p to interact with increasing concentrations of Rnr1p (18). The resonance unit (RU) is proportional to the mass, and 1 RU corresponds to a surface concentration of 1 pg of protein/mm² of the 100 nm thick dextran layer (19).
In control experiments, where the same series of Rnr1p solutions passed a sensor chip without immobilized Sml1p, a "bulk effect" gave a response of only about 60 RU. […] Calculating the equilibrium dissociation constant from these rate constants gave a K_0 of about 0.25 µM, which is close to the directly determined K_0.

B1: Recombinant yeast Sml1 protein (other)
chain: MQNSQDYFYAQNRCQQQQAPSTLRTVTMAEFRRVPLPPMAEVPMLSTQNSMGSSASASASSLEMWEKDLEERLNSIDHDMNNNKFGSGELKSMFNQGKVEEMDF
notes: Immobilized on the BIAcore chip in the biosensor experiments; also called YML058W product
B1: the “efficiency in inhibiting yeast RNR activity relative to the Sml1p C terminal nonapeptide, molar basis” value in assay [1] is about 200 times. Moreover, the binding result in assay [2] is “binds”. The Kd in assay [3] was found to be 410 nM.
